# Literature values, collected in publication PMC6063947.
# Biological target: Asp61 (UniProt position 61, VMGLVDAIPMI)
# Assay: NMR
substance,measurement,value
"ATP synthase subunit c (F0 sector, proteolipid) (Escherichia coli)",pKa,7.1
